Results taken from paper PMC9482650, “Quantitative fragmentomics allow affinity mapping of interactomes” (Nature Communications, 2022).

T1: ARHGAP21, Q5T5U3
T1 sequence (Q5T5U3 45-169, limits assumed, looked up): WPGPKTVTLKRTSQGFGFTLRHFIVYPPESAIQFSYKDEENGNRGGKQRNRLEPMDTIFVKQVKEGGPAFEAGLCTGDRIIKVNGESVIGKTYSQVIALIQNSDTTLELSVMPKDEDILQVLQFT

T2: DFNB31_2, Q9P202
T2 sequence (Q9P202 274-371, limits assumed, looked up): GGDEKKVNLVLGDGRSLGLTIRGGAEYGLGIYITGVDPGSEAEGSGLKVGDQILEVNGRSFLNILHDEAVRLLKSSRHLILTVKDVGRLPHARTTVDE

T3: DFNB31_3, Q9P202
T3 sequence (Q9P202 811-907, limits assumed, looked up): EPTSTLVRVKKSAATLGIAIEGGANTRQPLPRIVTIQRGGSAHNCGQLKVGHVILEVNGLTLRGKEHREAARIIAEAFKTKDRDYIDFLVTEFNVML

T4: DLG3_2, Q92796
T4 sequence (Q92796 221-321, limits assumed, looked up): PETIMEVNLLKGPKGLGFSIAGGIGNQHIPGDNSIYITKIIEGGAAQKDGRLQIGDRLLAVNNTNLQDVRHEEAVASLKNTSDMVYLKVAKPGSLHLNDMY

T5: GRIP1_4, Q9Y3R0
T5 sequence (Q9Y3R0 467-571, limits assumed, looked up): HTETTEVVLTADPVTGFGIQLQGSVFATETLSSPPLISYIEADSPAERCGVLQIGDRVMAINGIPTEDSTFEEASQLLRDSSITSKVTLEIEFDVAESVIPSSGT

T6: MPDZ_10, O75970
T6 sequence (O75970 1624-1722, limits assumed, looked up): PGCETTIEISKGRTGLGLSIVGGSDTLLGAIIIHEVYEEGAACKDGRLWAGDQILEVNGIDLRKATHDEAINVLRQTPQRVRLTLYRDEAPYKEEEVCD

T7: MPDZ_12, O75970
T7 sequence (O75970 1857-1958, limits assumed, looked up): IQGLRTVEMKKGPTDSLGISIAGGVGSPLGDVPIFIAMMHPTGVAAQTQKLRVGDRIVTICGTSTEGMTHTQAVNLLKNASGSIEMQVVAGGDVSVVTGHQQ

T8: MPDZ_5, O75970
T8 sequence (O75970 695-796, limits assumed, looked up): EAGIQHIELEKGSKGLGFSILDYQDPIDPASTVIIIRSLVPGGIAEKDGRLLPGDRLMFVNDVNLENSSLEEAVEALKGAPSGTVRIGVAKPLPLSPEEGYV

T9: MPP7, Q5T2T1
T9 sequence (Q5T2T1 134-230, limits assumed, looked up): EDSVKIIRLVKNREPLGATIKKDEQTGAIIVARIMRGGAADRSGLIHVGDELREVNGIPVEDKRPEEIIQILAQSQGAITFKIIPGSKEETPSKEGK

T10: PDZD2_2, O15018
T10 sequence (O15018 329-429, limits assumed, looked up): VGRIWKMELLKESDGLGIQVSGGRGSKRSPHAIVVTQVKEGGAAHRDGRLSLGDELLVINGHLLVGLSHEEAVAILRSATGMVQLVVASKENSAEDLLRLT

T11: PDZRN3_1, Q9UPQ7
T11 sequence (Q9UPQ7 244-349, limits assumed, looked up): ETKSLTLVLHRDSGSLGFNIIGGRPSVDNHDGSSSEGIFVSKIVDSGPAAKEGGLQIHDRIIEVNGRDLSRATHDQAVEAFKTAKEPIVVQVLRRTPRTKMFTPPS

T12: SNTA1, Q13424
T12 sequence (Q13424 82-180, limits assumed, looked up): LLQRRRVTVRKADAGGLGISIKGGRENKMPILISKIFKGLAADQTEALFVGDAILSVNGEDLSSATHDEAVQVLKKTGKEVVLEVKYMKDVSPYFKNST

T13: TX1BP3, O14907
T13 sequence (O14907 10-122, limits assumed, looked up): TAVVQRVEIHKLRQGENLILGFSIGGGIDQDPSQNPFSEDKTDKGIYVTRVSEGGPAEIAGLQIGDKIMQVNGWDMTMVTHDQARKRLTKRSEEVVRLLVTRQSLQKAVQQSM


Legend:
Assay in all cases: holdup assay
Design in all cases: key: below the threshold = too weak to quantify, mostly under pKd 3.1 to 4
Details in all cases: plain residues with an end cap or a label only (N-terminal biotin on a linker: ado-ado)
ARHGAP21, Q5T5U3 = target: T1, ARHGAP21, Q5T5U3
DFNB31_2, Q9P202 = target: T2, DFNB31_2, Q9P202
DFNB31_3, Q9P202 = target: T3, DFNB31_3, Q9P202
DLG3_2, Q92796 = target: T4, DLG3_2, Q92796
FRMPD3, Q5JV73 = target: FRMPD3, Q5JV73
GRIP1_4, Q9Y3R0 = target: T5, GRIP1_4, Q9Y3R0
GRIP2_6, Q9C0E4 = target: GRIP2_6, Q9C0E4
HTRA1, Q92743 = target: HTRA1, Q92743
IL16_1, Q14005 = target: IL16_1, Q14005
Inadl_3, Q8NI35 = target: Inadl_3, Q8NI35
Inadl_4, Q8NI35 = target: Inadl_4, Q8NI35
LIMK2, P53671 = target: LIMK2, P53671
MAGI2_2, Q86UL8 = target: MAGI2_2, Q86UL8
MAGI3_2, Q5TCQ9 = target: MAGI3_2, Q5TCQ9
MPDZ_10, O75970 = target: T6, MPDZ_10, O75970
MPDZ_12, O75970 = target: T7, MPDZ_12, O75970
MPDZ_5, O75970 = target: T8, MPDZ_5, O75970
MPP7, Q5T2T1 = target: T9, MPP7, Q5T2T1
PDLIM1, O00151 = target: PDLIM1, O00151
PDZD2_2, O15018 = target: T10, PDZD2_2, O15018
PDZRN3_1, Q9UPQ7 = target: T11, PDZRN3_1, Q9UPQ7
SNTA1, Q13424 = target: T12, SNTA1, Q13424
TJP1_2, Q07157 = target: TJP1_2, Q07157
TX1BP3, O14907 = target: T13, TX1BP3, O14907

LIMK2, P53671, sequence (P53671 143-248): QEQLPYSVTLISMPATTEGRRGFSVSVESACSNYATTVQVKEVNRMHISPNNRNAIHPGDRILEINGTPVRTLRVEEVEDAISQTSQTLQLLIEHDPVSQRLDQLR
Inadl_4, Q8NI35, sequence (Q8NI35 547-651): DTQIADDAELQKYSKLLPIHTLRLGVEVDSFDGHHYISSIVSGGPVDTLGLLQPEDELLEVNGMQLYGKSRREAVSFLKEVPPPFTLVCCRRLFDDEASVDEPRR
IL16_1, Q14005, sequence (Q14005 210-306): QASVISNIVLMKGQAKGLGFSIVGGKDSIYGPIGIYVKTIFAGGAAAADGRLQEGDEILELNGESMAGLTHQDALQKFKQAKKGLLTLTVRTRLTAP
MAGI2_2, Q86UL8, sequence (Q86UL8 410-522): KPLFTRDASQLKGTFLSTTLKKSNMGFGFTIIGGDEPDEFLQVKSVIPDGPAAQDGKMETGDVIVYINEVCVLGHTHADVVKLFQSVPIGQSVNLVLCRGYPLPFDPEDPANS
HTRA1, Q92743, sequence (Q92743 360-477): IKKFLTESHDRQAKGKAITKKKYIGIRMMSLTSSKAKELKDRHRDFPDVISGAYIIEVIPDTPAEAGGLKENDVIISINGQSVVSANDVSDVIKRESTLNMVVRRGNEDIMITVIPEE
MAGI3_2, Q5TCQ9, sequence (Q5TCQ9 398-503): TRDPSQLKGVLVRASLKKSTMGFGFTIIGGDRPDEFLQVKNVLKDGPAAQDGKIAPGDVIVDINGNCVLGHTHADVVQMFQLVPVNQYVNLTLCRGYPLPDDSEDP
TJP1_2, Q07157, sequence (Q07157 181-274): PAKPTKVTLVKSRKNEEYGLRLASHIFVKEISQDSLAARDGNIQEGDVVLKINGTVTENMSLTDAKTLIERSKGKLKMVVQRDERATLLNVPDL
PDLIM1, O00151, sequence (O00151 1-87): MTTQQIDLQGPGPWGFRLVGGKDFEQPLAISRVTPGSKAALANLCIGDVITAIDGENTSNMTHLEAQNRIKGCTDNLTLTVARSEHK
FRMPD3, Q5JV73, sequence (Q5JV73 12-100): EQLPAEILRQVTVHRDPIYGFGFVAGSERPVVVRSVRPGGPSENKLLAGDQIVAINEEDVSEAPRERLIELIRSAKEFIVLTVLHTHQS
GRIP2_6, Q9C0E4, sequence (Q9C0E4 648-740): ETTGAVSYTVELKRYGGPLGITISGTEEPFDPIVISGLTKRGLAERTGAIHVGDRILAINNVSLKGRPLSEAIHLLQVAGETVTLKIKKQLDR
Inadl_3, Q8NI35, sequence (Q8NI35 359-469): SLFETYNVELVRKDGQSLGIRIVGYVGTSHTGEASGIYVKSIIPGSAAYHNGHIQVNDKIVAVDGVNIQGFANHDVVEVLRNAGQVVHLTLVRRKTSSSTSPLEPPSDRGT

| Binder | pKd (ARHGAP21, Q5T5U3) | pKd (DFNB31_2, Q9P202) | pKd (DFNB31_3, Q9P202) | pKd (DLG3_2, Q92796) | pKd (FRMPD3, Q5JV73) | pKd (GRIP1_4, Q9Y3R0) | pKd (GRIP2_6, Q9C0E4) | pKd (HTRA1, Q92743) | pKd (IL16_1, Q14005) | pKd (Inadl_3, Q8NI35) | pKd (Inadl_4, Q8NI35) | pKd (LIMK2, P53671) | pKd (MAGI2_2, Q86UL8) | pKd (MAGI3_2, Q5TCQ9) | pKd (MPDZ_10, O75970) | pKd (MPDZ_12, O75970) | pKd (MPDZ_5, O75970) | pKd (MPP7, Q5T2T1) | pKd (PDLIM1, O00151) | pKd (PDZD2_2, O15018) | further results |
| --- | --- | --- | --- | --- | --- | --- | --- | --- | --- | --- | --- | --- | --- | --- | --- | --- | --- | --- | --- | --- | --- |
| APIAGFSSFV [SDK2, Q58EX2] | 4.04 | 3.52 | below the threshold | 4.07 | below the threshold | below the threshold | below the threshold | 4.51 | 4.06 | 3.86 | below the threshold | below the threshold | 3.5 | 4.27 | below the threshold | 4.37 | below the threshold | below the threshold | below the threshold | 5.54 | pKd (PDZRN3_1, Q9UPQ7): 3.78; pKd (SNTA1, Q13424): 4.09; pKd (TJP1_2, Q07157): below the threshold; pKd (TX1BP3, O14907): 4.84 |
| LAHVKHKEQI [AQP3, Q92482] | 3.98 | below the threshold | below the threshold | below the threshold | below the threshold | below the threshold | below the threshold | below the threshold | below the threshold | below the threshold | below the threshold | below the threshold | below the threshold | below the threshold | below the threshold | below the threshold | below the threshold | below the threshold | below the threshold | below the threshold | pKd (PDZRN3_1, Q9UPQ7): below the threshold; pKd (SNTA1, Q13424): below the threshold; pKd (TJP1_2, Q07157): below the threshold; pKd (TX1BP3, O14907): below the threshold |
| RFQQRMQTHV [KIRREL1, Q96J84] | below the threshold | below the threshold | 3.62 | 4.69 | below the threshold | below the threshold | 3.54 | below the threshold | below the threshold | below the threshold | below the threshold | below the threshold | 5.49 | 5.37 | below the threshold | below the threshold | below the threshold | below the threshold | below the threshold | 4.4 | pKd (PDZRN3_1, Q9UPQ7): below the threshold; pKd (SNTA1, Q13424): below the threshold; pKd (TJP1_2, Q07157): below the threshold; pKd (TX1BP3, O14907): 4.85 |

Second part, led by results:

| pKd (ARHGAP21, Q5T5U3) | pKd (DFNB31_2, Q9P202) | pKd (DFNB31_3, Q9P202) | pKd (DLG3_2, Q92796) | pKd (FRMPD3, Q5JV73) | pKd (GRIP1_4, Q9Y3R0) | pKd (GRIP2_6, Q9C0E4) | pKd (HTRA1, Q92743) | pKd (IL16_1, Q14005) | pKd (Inadl_3, Q8NI35) | pKd (Inadl_4, Q8NI35) | pKd (LIMK2, P53671) | pKd (MAGI2_2, Q86UL8) | pKd (MAGI3_2, Q5TCQ9) | pKd (MPDZ_10, O75970) | pKd (MPDZ_12, O75970) | pKd (MPDZ_5, O75970) | pKd (MPP7, Q5T2T1) | pKd (PDLIM1, O00151) | pKd (PDZD2_2, O15018) | Binder | further results |
| --- | --- | --- | --- | --- | --- | --- | --- | --- | --- | --- | --- | --- | --- | --- | --- | --- | --- | --- | --- | --- | --- |
| 4.21 | below the threshold | below the threshold | 4.59 | 3.6 | below the threshold | 3.54 | 4.44 | 3.59 | 3.85 | below the threshold | below the threshold | below the threshold | below the threshold | 3.7 | below the threshold | below the threshold | below the threshold | 3.53 | 5.32 | REEPDHSTEV [CCRL2, O00421] | pKd (PDZRN3_1, Q9UPQ7): 4.2; pKd (SNTA1, Q13424): 4.45; pKd (TJP1_2, Q07157): below the threshold; pKd (TX1BP3, O14907): 3.49 |
| 3.99 | below the threshold | below the threshold | below the threshold | below the threshold | below the threshold | below the threshold | 4.32 | below the threshold | below the threshold | below the threshold | below the threshold | below the threshold | below the threshold | 3.64 | below the threshold | below the threshold | below the threshold | below the threshold | 4.86 | QSYPSKHDYV [CLDN18, P56856] | pKd (PDZRN3_1, Q9UPQ7): below the threshold; pKd (SNTA1, Q13424): 3.58; pKd (TJP1_2, Q07157): 3.61; pKd (TX1BP3, O14907): 4.17 |
| below the threshold | below the threshold | 3.84 | 4.17 | below the threshold | below the threshold | below the threshold | 3.49 | below the threshold | below the threshold | below the threshold | below the threshold | below the threshold | below the threshold | below the threshold | below the threshold | below the threshold | below the threshold | below the threshold | below the threshold | EDPRVEVTQF [SLC22A9, Q8IVM8] | pKd (PDZRN3_1, Q9UPQ7): below the threshold; pKd (SNTA1, Q13424): below the threshold; pKd (TJP1_2, Q07157): below the threshold; pKd (TX1BP3, O14907): below the threshold |
